Measured values as given in patent US20190330374A1.

Legend:
[1] = target: OX40 on activated T cells (PBMCs activated with Human T cell Activator Dynabeads) (human) (UniProt P43489); assay: flow cytometry on activated PBMCs, CD8+ T cells with low OX40
[2] = target: OX40 on activated T cells (PBMCs activated with Human T cell Activator Dynabeads) (human) (UniProt P43489); assay: flow cytometry on activated PBMCs, CD4+ T cells with high OX40
OX40-Fc (R&D) (human) [3] = target: OX40-Fc (R&D) (human) (UniProt P43489); assay: ELISA, plate coated with 0.4 ng/mL OX40-Fc, anti-human kappa-HRP detection
OX40-Fc (R&D) (human) [4] = target: OX40-Fc (R&D) (human) (UniProt P43489); assay: ELISA, plate coated with 1.6 ng/mL OX40-Fc, anti-human kappa-HRP detection

Chain of OX40 on activated T cells (PBMCs activated with Human T cell Activator Dynabeads) (human) (P43489 29-277): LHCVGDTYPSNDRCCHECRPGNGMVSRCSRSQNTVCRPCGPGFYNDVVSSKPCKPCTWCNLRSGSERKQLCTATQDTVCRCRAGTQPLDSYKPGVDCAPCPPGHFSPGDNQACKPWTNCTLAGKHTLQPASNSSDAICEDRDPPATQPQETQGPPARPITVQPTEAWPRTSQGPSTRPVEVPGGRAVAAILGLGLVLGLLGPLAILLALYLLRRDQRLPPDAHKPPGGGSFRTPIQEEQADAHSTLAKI
Chain of OX40-Fc (R&D) (human) (P43489 29-216 limits assumed): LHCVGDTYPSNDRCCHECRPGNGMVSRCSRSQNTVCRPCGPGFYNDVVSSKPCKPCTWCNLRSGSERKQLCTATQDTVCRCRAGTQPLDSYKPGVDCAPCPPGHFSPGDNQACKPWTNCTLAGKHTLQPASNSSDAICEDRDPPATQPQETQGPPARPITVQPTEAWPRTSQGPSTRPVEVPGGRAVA

- fold better binding than Anti-OX40 #1-IgG (ratio of Kd, IgG to IgM) [1]: 25 fold
- fold better binding than Anti-OX40 #1-IgG (ratio of Kd, IgG to IgM) [2]: 6 fold
- fold better binding than Anti-OX40 #1-IgG (ratio of Bmax) (OX40-Fc (R&D) (human) [3]): 28 fold
- fold better binding than Anti-OX40 #1-IgG (ratio of Bmax) (OX40-Fc (R&D) (human) [4]): 1.2 fold
B1: Anti-OX40 #1-IgM (antibody, V domains shown)
VH: QVQLQESGPGLVKPSQTLSLTCAVYGGSFSSGYWNWIRKHPGKGLEYIGYISYNGITYHNPSLKSRITINRDTSKNQYSLQLNSVTPEDTAVYYCARYKYDYDGGHAMDYWGQGTLVTVSS
VL: DIQMTQSPSSLSASVGDRVTITCRASQDISNYLNWYQQKPGKAPKLLIYYTSKLHSGVPSRFSGSGSGTDYTLTISSLQPEDFATYYCQQGSALPWTFGQGTKVEIK
